Reference: paper doi:10.1101/2021.08.20.457118 (bioRxiv, 2021)

Target: linear di-Ub (M1-linear from UbiQ) (UniProt P0CG47)
Experiment: SPR

binding result: binds
B1: His-tagged Ufd2p (enzyme)
chain: MTAIEDILQITTDPSDTRGYSLLKSEEVPQGSTLGVDFIDTLLLYQLTENEKLDKPFEYLNDCFRRNQQQKRITKNKPNAESLHSTFQEIDRLVIGYGVVALQIENFCMNGAFINYITGIVSNVNSYTDFLSQIIQRAILEGTALDLLNAVFPTLLEYCNKHVSHFDLNESVIYNNVLTIFELFVTFKPIAEIFTKIDGFFADYSCKPQDFERKTILGPILSLSPIEAAVAIRNYGDNLLRSKQQTAMIHESLQAEHKVVIDRLFFIVDKLVRGSLNSRTDMISYFAHIANKNHLRRADHPPFKELSSNGFMSNITLLLVRFSQPFLDISYKKIDKIDANYFNNPSLFIDLSGETRLNSDFKEADAFYDKNRKTADSKPNFISDCFFLTLTYLHYGLGGTLSFEEKMGSEIKALKEEIEKVKKIAANHDVFARFITAQLSKMEKALKTTESLRFALQGFFAHRSLQLEVFDFICGASTFLIRVVDPEHEFPFKQIKLPLIPDQIGVENVDNADFLRAHAPVPFKYYPEFVVEGPVNYSLYISKYQTSPIFRNPRLGSFVEFTTMVLRCPELVSNPHLKGKLVQLLSVGAMPLTDNSPGFMMDIFEHDELVNKNLLYALLDFYVIVEKTGSSSQFYDKFNSRYSISIILEELYYKIPSYKNQLIWQSQNNADFFVRFVARMLNDLTFLLDEGLSNLAEVHNIQNELDNRARGAPPTREEEDKELQTRLASASRQAKSSCGLADKSMKLFEIYSKDIPAAFVTPEIVYRLASMLNYNLESLVGPKCGELKVKDPQSYSFNPKDLLKALTTVYINLSEQSEFISAVAKDERSFNRNLFVRAVDILGRKTGLASPEFIEKLLNFANKAEEQRKADEEEDLEYGDVPDEFLDPLMYTIMKDPVILPASKMNIDRSTIKAHLLSDSTDPFNRMPLKLEDVTPNEELRQKILCFKKQKKEEAKHKASE
